± gives the standard deviation of the averaged measurements or the uncertainty stated by the source.
What was measured:
[1] = duplex melting temperature (HRM, EvaGreen); higher = more stable duplex
Procedure, shortened: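 Complementary DNA strands (phosphodiester or phosphorothioate, Rp/Sp mixtures) were annealed 1:1 at 25 μM, then diluted to 1–20 μM duplex in NNE buffer (500 mM NaCl, pH 7.0) with 1× EvaGreen. A LightCycler96 read fluorescence (470/514 nm) while heating from 37°C to 97°C at 0.1°C/s. Melting temperature was the peak of the negative dF/dT curve from the instrument software. Four replicates were prepared; those lacking a clear peak were excluded and the rest averaged.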

[2] = duplex formation free energy ΔG50 (Van't Hoff fit of HRM Tm); higher = less stable duplex; settings: temperature for dG: 50 °C, NaCl: 500 mM (unadjusted)
Procedure, shortened: (§1)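 Four replicate samples of each duplex, annealed 1:1 from phosphodiester or phosphorothioate strands (the latter mixed Rp/Sp), were melted at 1–20 μM in 1× NNE buffer (500 mM NaCl, pH 7.0) with 1× EvaGreen, heating from 37 to 97°C at 0.1°C/s on a LightCycler96. Tm is the peak of -dF/dT, and a linear Van't Hoff regression of 1/Tm against ln(CT/4) gives enthalpy, entropy and extrapolated free energy, with no salt adjustment and errors given as fit standard deviations. The free energy extrapolation is to 50°C.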

[3] = duplex formation enthalpy ΔH (Van't Hoff fit of HRM Tm); higher = less exothermic duplex formation; settings: temperature for dG: 50 °C, NaCl: 500 mM (unadjusted)
Procedure, shortened: as §1

[4] = duplex formation entropy ΔS (Van't Hoff fit of HRM Tm); higher = smaller entropy loss on duplex formation; settings: temperature for dG: 50 °C, NaCl: 500 mM (unadjusted)
Procedure, shortened: as §1

[5] = duplex concentration 1 µM, backbone: PS-PS (both strands fully phosphorothioate)
[6] = duplex concentration 2.5 µM, backbone: PO-PO (both strands phosphodiester DNA)
[7] = duplex concentration 2.5 µM, backbone: PS-PO (listed strand fully phosphorothioate, complement phosphodiester)
[8] = duplex concentration 2.5 µM, backbone: PS-PS (both strands fully phosphorothioate)
[9] = duplex concentration 5 µM, backbone: PO-PO (both strands phosphodiester DNA)
[10] = duplex concentration 5 µM, backbone: PS-PO (listed strand fully phosphorothioate, complement phosphodiester)
[11] = duplex concentration 5 µM, backbone: PS-PS (both strands fully phosphorothioate)
[12] = duplex concentration 7.5 µM, backbone: PO-PO (both strands phosphodiester DNA)
[13] = duplex concentration 7.5 µM, backbone: PS-PO (listed strand fully phosphorothioate, complement phosphodiester)
[14] = duplex concentration 7.5 µM, backbone: PS-PS (both strands fully phosphorothioate)
[15] = duplex concentration 10 µM, backbone: PO-PO (both strands phosphodiester DNA)
[16] = duplex concentration 10 µM, backbone: PS-PO (listed strand fully phosphorothioate, complement phosphodiester)
[17] = duplex concentration 10 µM, backbone: PS-PS (both strands fully phosphorothioate)
[18] = duplex concentration 15 µM, backbone: PO-PO (both strands phosphodiester DNA)
[19] = duplex concentration 15 µM, backbone: PS-PO (listed strand fully phosphorothioate, complement phosphodiester)
[20] = duplex concentration 15 µM, backbone: PS-PS (both strands fully phosphorothioate)
[21] = duplex concentration 20 µM, backbone: PO-PO (both strands phosphodiester DNA)
[22] = duplex concentration 20 µM, backbone: PS-PO (listed strand fully phosphorothioate, complement phosphodiester)
[23] = duplex concentration 20 µM, backbone: PS-PS (both strands fully phosphorothioate)
[24] = backbone: PO-PO (both strands phosphodiester DNA)
[25] = backbone: PS-PO (listed strand fully phosphorothioate, complement phosphodiester)
[26] = backbone: PS-PS (both strands fully phosphorothioate)
[27] = duplex concentration 1 µM, backbone: PO-PO (both strands phosphodiester DNA)
[28] = duplex concentration 1 µM, backbone: PS-PO (listed strand fully phosphorothioate, complement phosphodiester)

Row | Sequence | duplex melting temperature [1, 5] | duplex melting temperature [1, 6] | duplex melting temperature [1, 7] | duplex melting temperature [1, 8] | duplex melting temperature [1, 9] | duplex melting temperature [1, 10] | duplex melting temperature [1, 11] | duplex melting temperature [1, 12] | duplex melting temperature [1, 13] | duplex melting temperature [1, 14] | duplex melting temperature [1, 15] | duplex melting temperature [1, 16] | duplex melting temperature [1, 17] | duplex melting temperature [1, 18] | duplex melting temperature [1, 19] | duplex melting temperature [1, 20] | duplex melting temperature [1, 21] | duplex melting temperature [1, 22] | duplex melting temperature [1, 23] | duplex formation free energy ΔG50 [2, 24] | duplex formation free energy ΔG50 [2, 25] | duplex formation free energy ΔG50 [2, 26] | duplex formation enthalpy ΔH [3, 24] | duplex formation enthalpy ΔH [3, 25] | duplex formation enthalpy ΔH [3, 26] | duplex formation entropy ΔS [4, 24] | duplex formation entropy ΔS [4, 25] | duplex formation entropy ΔS [4, 26] | duplex melting temperature [1, 27] | duplex melting temperature [1, 28]
1 | CTAAACTGTTATAGCCGG | 46.18 ± 0.36 °C | 66.43 ± 0.32 °C | 58.77 ± 0.43 °C | 48.97 ± 0.4 °C | 67.83 ± 0.25 °C | 60.28 ± 0.38 °C | 51.09 ± 0.26 °C | 68.83 ± 0.28 °C | 61.66 ± 0.5 °C | 52.63 ± 0.18 °C | 70.13 ± 0.37 °C | 62.55 ± 0.4 °C | 53.4 ± 0.36 °C | 71.19 ± 0.13 °C | 63.71 ± 0.22 °C | 55.1 ± 0.25 °C | 72.08 ± 0.077 °C | 64.43 ± 0.18 °C | 56.27 ± 0.23 °C | -13.2 ± 0.46 kcal/mol | -11.2 ± 0.12 kcal/mol | -8.979 ± 0.029 kcal/mol | -83.8 ± 8.2 kcal/mol | -77.5 ± 3.3 kcal/mol | -62.5 ± 2.5 kcal/mol | -219 ± 24 cal/mol/K | -205 ± 9.7 cal/mol/K | -166 ± 7.6 cal/mol/K | – | –
2 | GAACTGCCACTACCAA | 48.68 ± 0.086 °C | 64.85 ± 0.39 °C | 58.65 ± 0.087 °C | 52.19 ± 0.14 °C | 67.25 ± 0.085 °C | 60.93 ± 0.068 °C | 54.589 ± 0.051 °C | 68.57 ± 0.17 °C | 62.25 ± 0.15 °C | 55.833 ± 0.044 °C | 69.531 ± 0.05 °C | 63.17 ± 0.12 °C | 56.65 ± 0.09 °C | 71 ± 0.09 °C | 64.25 ± 0.11 °C | 57.7 ± 0.15 °C | 71.922 ± 0.013 °C | 65.26 ± 0.12 °C | 58.53 ± 0.13 °C | -12.27 ± 0.11 kcal/mol | -11.04 ± 0.059 kcal/mol | -9.573 ± 0.046 kcal/mol | -69.8 ± 2 kcal/mol | -70.8 ± 1.6 kcal/mol | -65.1 ± 2.6 kcal/mol | -178 ± 5.8 cal/mol/K | -185 ± 4.7 cal/mol/K | -172 ± 7.9 cal/mol/K | 63.2 °C | –
3 | GGTTGCGGTGGCCAAC | – | 72.47 ± 0.19 °C | – | – | 74.78 ± 0.39 °C | 59.24 ± 0.17 °C | – | 75.96 ± 0.48 °C | 59.89 ± 0.26 °C | 53.12 ± 0.24 °C | 76.87 ± 0.44 °C | 60.61 ± 0.24 °C | 53.68 ± 0.31 °C | 77.98 ± 0.31 °C | 61.52 ± 0.21 °C | 54.3 ± 0.32 °C | 78.76 ± 0.29 °C | 62.17 ± 0.44 °C | 54.47 ± 0.31 °C | -14.7 ± 0.36 kcal/mol | – | – | -83.4 ± 4.7 kcal/mol | – | – | -213 ± 13 cal/mol/K | – | – | – | –
4 | CTCGGAGGCCCCATTTA | 56.27 ± 0.32 °C | 69.45 ± 0.55 °C | 63.65 ± 0.44 °C | 59.31 ± 0.12 °C | 72.34 ± 0.17 °C | 66.33 ± 0.23 °C | 61.51 ± 0.1 °C | 73.72 ± 0.22 °C | 67.63 ± 0.23 °C | 62.63 ± 0.089 °C | 74.68 ± 0.39 °C | 68.67 ± 0.14 °C | 63.34 ± 0.086 °C | 76.04 ± 0.34 °C | 69.97 ± 0.17 °C | 64.55 ± 0.08 °C | 76.97 ± 0.28 °C | 70.91 ± 0.14 °C | 65.31 ± 0.13 °C | -13.2 ± 0.19 kcal/mol | -11.87 ± 0.061 kcal/mol | -11.22 ± 0.074 kcal/mol | -68.7 ± 2.7 kcal/mol | -66 ± 1.2 kcal/mol | -73.9 ± 2 kcal/mol | -172 ± 7.8 cal/mol/K | -167 ± 3.5 cal/mol/K | -194 ± 6.1 cal/mol/K | – | 60.53 ± 0.43 °C
5 | CCCAGGCCTCGGATTTA | 56.81 ± 0.12 °C | 71.02 ± 0.086 °C | 64.52 ± 0.19 °C | 59.77 ± 0.087 °C | 73.09 ± 0.13 °C | 66.7 ± 0.3 °C | 61.69 ± 0.093 °C | 74.25 ± 0.19 °C | 67.99 ± 0.22 °C | 62.78 ± 0.14 °C | 75.215 ± 0.05 °C | 68.759 ± 0.049 °C | 63.54 ± 0.15 °C | 76.343 ± 0.055 °C | 70.047 ± 0.069 °C | 64.73 ± 0.092 °C | 77.12 ± 0.096 °C | 71.04 ± 0.25 °C | 65.39 ± 0.35 °C | -14.1 ± 0.15 kcal/mol | -12.37 ± 0.061 kcal/mol | -11.41 ± 0.078 kcal/mol | -80.8 ± 2.1 kcal/mol | -74.2 ± 1.2 kcal/mol | -77.5 ± 2.1 kcal/mol | -206 ± 6.1 cal/mol/K | -191 ± 3.5 cal/mol/K | -205 ± 6.3 cal/mol/K | – | 61.72 ± 0.53 °C
6 | CGCGCGAGTATTTATAACCT | 52.47 ± 0.24 °C | 72.26 ± 0.47 °C | 64.1 ± 0.75 °C | 55.09 ± 0.4 °C | 73.44 ± 0.43 °C | 65.57 ± 0.61 °C | 56.95 ± 0.38 °C | 74.53 ± 0.18 °C | 66.38 ± 0.52 °C | 57.68 ± 0.13 °C | 75.09 ± 0.087 °C | 67.07 ± 0.32 °C | 58.33 ± 0.069 °C | 75.71 ± 0.17 °C | 67.9 ± 0.21 °C | – | – | 68.39 ± 0.14 °C | – | -18.2 ± 0.69 kcal/mol | -13.7 ± 0.2 kcal/mol | -10.5 ± 0.12 kcal/mol | -138 ± 10 kcal/mol | -107 ± 4 kcal/mol | -86 ± 6.3 kcal/mol | -372 ± 29 cal/mol/K | -290 ± 12 cal/mol/K | -234 ± 19 cal/mol/K | 71.21 ± 0.27 °C | –
7 | ACTCGCTCTACCTTAAT | 46.7 ± 0.53 °C | 62.88 ± 0.38 °C | 55.24 ± 0.45 °C | 50.2 ± 0.22 °C | 65.23 ± 0.53 °C | 57.69 ± 0.21 °C | 52.44 ± 0.085 °C | 66.57 ± 0.5 °C | 59.03 ± 0.074 °C | 53.72 ± 0.14 °C | 67.63 ± 0.18 °C | 59.946 ± 0.043 °C | 54.68 ± 0.21 °C | 69.17 ± 0.14 °C | 61.16 ± 0.2 °C | 55.75 ± 0.19 °C | 70.4 ± 0.34 °C | 62.06 ± 0.28 °C | 56.8 ± 0.2 °C | -11.8 ± 0.16 kcal/mol | -10.27 ± 0.06 kcal/mol | -9.165 ± 0.027 kcal/mol | -68.3 ± 3.3 kcal/mol | -67 ± 2.1 kcal/mol | -63.1 ± 2 kcal/mol | -175 ± 9.7 cal/mol/K | -176 ± 6.4 cal/mol/K | -167 ± 6.3 cal/mol/K | 60.43 ± 0.52 °C | –

— the supplement of paper PMC9116672
